The target in assay [1] is human αvβ3 protein (CHEMICON International), soluble (human) (UniProt P06756). Put plainly: cell-based or functional assay.
The target in assay [2] is αvβ3 integrin on C-PAE cells (bovine) (UniProt P80746). Put plainly: C-PAE attachment to Tum-2-coated plates.
For assay [3], the target named is αvβ3 integrin on HUVEC cells (human) (UniProt P06756). Put plainly: HUVEC adhesion to collagen Type IV-coated plates; 10 µg/ml antibody.
The target is the same in assay [4]. Put plainly: HUVEC attachment to Tumstatin-coated plates; anti-αvβ3 and anti-β1 antibodies used together.
The target in assay [5] is αvβ3 integrin on C-PAE cells (bovine) (UniProt P80746). Briefly: C-PAE attachment to Tum-1-coated plates.
The target is the same in assay [6]. Put plainly: C-PAE attachment to Tum-4-coated plates.
Assay [7] has as its target αvβ3 integrin on HUVEC cells (human) (UniProt P06756). Put plainly: cell binding to vitronectin-coated plates; 10 µg/ml antibody.
For assay [8] the target is unchanged. Put plainly: HUVEC attachment to plates coated with E. coli Tumstatin-45-132; 10 µg/ml antibody.
Assay [9] shares this target. Briefly: HUVEC attachment to Tumstatin-coated plates; 10 µg/ml antibody; against control IgG.
Assay [10] addresses integrin β1 subunit on HUVEC cells (human) (UniProt P05556). Briefly: HUVEC adhesion to collagen Type IV-coated plates; 10 µg/ml antibody.
The target is the same in assay [11]. Briefly: HUVEC attachment to plates coated with E. coli Tumstatin-45-132; 10 µg/ml antibody.
For assay [12] the target is unchanged. Briefly: HUVEC adhesion to Arresten-coated plates; 10 µg/ml antibody; blocked pair Arresten / integrin β1.
For assay [13] the target is unchanged. Briefly: cell binding to type IV collagen-coated plates; 10 µg/ml antibody; against control IgG.
Assay [14] has the same target. Put plainly: HUVEC attachment to Tumstatin-coated plates; 10 µg/ml antibody; against control IgG.

The text below walks through data of US20030144481A1.

αvβ3 integrin on C-PAE cells (bovine), sequence (P80746 31-1048): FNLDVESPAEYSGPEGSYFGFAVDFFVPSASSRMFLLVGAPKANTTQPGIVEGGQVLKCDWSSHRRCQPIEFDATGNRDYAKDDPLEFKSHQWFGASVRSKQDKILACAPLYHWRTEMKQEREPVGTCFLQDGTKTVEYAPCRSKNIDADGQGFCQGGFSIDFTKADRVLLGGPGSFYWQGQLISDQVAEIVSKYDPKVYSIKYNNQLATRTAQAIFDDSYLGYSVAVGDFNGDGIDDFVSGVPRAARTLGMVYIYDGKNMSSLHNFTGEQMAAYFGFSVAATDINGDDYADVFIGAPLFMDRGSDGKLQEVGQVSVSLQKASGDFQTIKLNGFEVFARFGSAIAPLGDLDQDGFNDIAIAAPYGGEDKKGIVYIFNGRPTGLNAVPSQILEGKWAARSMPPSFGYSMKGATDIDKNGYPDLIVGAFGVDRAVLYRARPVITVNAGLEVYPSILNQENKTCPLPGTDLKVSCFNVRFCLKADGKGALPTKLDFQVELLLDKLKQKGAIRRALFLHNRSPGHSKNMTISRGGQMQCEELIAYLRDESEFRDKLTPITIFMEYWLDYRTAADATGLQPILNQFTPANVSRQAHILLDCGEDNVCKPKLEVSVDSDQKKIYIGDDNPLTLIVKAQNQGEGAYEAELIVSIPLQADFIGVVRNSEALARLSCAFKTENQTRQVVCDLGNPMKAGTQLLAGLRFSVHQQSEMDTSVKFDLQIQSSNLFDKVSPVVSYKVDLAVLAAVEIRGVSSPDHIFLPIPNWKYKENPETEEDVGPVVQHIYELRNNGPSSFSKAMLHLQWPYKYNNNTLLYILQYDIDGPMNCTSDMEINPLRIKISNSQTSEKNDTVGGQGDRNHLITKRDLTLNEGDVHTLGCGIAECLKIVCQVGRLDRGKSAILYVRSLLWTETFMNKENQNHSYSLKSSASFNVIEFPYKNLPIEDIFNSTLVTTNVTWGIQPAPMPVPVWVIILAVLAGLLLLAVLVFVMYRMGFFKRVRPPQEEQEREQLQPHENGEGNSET
integrin β1 subunit on HUVEC cells (human), sequence (P05556 21-798): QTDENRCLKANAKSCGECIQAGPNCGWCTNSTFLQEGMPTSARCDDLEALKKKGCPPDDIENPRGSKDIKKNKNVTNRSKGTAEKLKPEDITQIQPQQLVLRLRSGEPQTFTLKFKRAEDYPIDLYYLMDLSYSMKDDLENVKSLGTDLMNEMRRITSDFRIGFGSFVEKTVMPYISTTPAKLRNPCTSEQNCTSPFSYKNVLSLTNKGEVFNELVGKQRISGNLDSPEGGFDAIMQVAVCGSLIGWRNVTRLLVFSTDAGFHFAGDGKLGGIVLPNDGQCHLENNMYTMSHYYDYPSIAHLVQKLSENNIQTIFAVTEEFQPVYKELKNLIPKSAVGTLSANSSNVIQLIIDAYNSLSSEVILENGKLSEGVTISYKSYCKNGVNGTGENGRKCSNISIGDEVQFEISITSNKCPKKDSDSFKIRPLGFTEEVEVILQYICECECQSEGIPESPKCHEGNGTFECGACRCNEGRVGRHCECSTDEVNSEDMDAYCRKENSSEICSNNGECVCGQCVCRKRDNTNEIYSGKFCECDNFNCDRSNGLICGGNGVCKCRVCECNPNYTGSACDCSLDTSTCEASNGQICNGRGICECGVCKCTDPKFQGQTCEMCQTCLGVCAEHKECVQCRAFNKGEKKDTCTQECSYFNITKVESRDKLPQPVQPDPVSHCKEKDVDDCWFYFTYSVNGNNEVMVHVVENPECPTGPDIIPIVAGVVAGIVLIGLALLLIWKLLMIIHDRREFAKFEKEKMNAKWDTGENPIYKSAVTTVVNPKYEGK
αvβ3 integrin on HUVEC cells (human), sequence (P06756 31-1048, chain 1 of 2): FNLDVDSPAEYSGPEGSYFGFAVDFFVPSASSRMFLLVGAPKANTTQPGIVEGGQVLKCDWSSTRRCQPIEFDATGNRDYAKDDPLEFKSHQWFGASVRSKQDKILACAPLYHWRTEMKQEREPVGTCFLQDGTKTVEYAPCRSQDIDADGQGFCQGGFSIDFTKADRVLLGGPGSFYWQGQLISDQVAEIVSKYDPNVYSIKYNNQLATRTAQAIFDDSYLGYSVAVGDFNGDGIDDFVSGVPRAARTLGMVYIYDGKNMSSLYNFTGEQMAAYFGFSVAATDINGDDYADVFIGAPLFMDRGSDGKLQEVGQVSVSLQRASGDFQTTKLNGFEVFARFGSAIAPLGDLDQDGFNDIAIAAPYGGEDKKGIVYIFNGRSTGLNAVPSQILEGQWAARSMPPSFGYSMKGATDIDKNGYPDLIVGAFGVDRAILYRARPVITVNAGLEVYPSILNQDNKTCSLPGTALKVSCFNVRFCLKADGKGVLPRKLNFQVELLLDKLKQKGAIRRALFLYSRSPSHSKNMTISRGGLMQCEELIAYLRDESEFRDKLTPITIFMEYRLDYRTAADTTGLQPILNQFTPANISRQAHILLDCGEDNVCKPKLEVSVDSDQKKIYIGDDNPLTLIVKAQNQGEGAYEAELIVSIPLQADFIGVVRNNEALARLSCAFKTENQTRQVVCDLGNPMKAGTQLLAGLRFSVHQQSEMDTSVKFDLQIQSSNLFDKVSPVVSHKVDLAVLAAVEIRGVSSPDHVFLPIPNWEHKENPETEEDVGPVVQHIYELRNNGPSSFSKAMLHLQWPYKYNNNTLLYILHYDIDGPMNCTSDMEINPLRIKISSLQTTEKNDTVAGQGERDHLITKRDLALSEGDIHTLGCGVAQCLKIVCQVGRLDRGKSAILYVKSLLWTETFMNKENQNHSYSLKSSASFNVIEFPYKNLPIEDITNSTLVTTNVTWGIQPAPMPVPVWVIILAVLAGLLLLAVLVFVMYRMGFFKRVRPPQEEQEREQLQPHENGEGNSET
αvβ3 integrin on HUVEC cells (human), sequence (P05106 27-788, chain 2 of 2, further chain): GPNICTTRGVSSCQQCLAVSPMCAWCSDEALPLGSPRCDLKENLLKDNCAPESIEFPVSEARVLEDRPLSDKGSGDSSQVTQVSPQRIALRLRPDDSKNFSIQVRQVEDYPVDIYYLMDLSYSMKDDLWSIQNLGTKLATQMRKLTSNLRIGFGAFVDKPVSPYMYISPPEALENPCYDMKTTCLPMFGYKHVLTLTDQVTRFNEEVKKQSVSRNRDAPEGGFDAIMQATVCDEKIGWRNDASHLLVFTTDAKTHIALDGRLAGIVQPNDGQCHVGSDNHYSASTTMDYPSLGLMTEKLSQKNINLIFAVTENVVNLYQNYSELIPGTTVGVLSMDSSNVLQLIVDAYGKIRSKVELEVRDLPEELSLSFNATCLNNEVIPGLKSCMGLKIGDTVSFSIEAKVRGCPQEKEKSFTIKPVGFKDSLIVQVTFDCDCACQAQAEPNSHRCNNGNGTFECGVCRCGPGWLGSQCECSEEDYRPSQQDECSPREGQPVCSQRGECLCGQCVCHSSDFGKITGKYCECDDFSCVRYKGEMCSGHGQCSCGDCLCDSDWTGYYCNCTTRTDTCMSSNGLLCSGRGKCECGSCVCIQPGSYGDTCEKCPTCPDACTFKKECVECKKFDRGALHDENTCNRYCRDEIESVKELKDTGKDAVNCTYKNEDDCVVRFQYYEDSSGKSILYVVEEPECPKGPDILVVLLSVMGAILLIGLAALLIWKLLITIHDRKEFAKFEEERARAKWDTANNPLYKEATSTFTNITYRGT

The substance “Tum-2 (from UniProt Q01955 1427-1558) (ligand)” registered a recovery of the anti-proliferative effect on C-PAE cells (methylene blue) in [1] of 74.1%.

Take “Tum-4 (from UniProt Q01955 1607-1670) (ligand)”: in assay [1], the recovery of the anti-proliferative effect on WM-164 melanoma cells (methylene blue) stood at 76.7%.

As for “monoclonal antibody to αvβ3 integrin (clone LM609, CHEMICON International)”, the % inhibition of cell attachment in assay [2] was found to be 69.8%; in assay [4], 91%; in assay [5], 55.9%; in assay [6], 62.6%; in [8], 47.1%; in assay [9], 80%. Further, the % inhibition of cell adhesion in assay [3] turned out to be 15%. This substance came in with a % inhibition of cell binding in assay [7] of 61%.

Regarding “mouse monoclonal antibody to the human β1 integrin (clone P4C10, Life Technologies/Gibco BRL)”, the % inhibition of cell adhesion in assay [10] amounted to 40%; in assay [12], 70%. In addition, the % inhibition of cell attachment in assay [11] is 47.5%; in assay [14] it was 54%. Also, the % inhibition of cell binding in assay [13] was found to be 53%.
